The text below walks through data of PMC7498356.

The target in series [1] is T1, TDRD5 LOTUS domain 1 (L1) (Mus musculus, UniProt Q5VCS6 7-80).
T1 sequence: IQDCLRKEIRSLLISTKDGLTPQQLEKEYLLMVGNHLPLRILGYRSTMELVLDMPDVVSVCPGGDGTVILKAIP
Description: pull-down.

In series [2] the target is T2, TDRD5 LOTUS domain 2 (L2) (Mus musculus, UniProt Q5VCS6 122-197).
T2 sequence: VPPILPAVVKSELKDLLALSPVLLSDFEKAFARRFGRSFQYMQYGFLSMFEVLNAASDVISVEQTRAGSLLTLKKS
Description: pull-down.

The target in series [3] is T3, TDRD5 LOTUS domain 3 (L3) (Mus musculus, UniProt Q5VCS6 291-365).
T3 sequence: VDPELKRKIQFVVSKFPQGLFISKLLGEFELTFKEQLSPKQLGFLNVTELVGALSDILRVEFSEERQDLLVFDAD
Description: pull-down.

For series [4], the target named is T3, TDRD5 LOTUS domain 3 (L3). As to the kind of experiment: pull-down, ELISA. (In an ELISA, binding on a coated surface is turned into a signal by an enzyme label.)
The next series deals with T4, AT3G52980-LOTUS (plant, UniProt Q9LF94 199-282).
T4 sequence: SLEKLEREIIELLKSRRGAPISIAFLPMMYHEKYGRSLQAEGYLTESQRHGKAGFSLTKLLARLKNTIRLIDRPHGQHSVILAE
Description: ELISA.

In a further series the target is T5, human MARF1 L7 (Homo sapiens, UniProt Q9Y4F3 1411-1485).
T5 sequence: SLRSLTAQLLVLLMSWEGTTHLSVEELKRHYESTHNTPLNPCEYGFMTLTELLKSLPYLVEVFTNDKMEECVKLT
As to the kind of experiment: ELISA.

The target of the next series is T6, Oskar LOTUS (eLOTUS) (Drosophila, UniProt P25158 139-241).
T6 sequence: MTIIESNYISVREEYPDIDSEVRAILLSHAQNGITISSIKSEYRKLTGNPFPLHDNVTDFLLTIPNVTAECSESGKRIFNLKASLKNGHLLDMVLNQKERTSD
As to the kind of experiment: ELISA.

The next series concerns the target T7, TDRD7 L2 (Mus musculus, UniProt Q8K1H1 222-291).
T7 sequence: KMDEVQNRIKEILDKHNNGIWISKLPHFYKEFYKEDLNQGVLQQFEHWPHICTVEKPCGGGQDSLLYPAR
As to the kind of experiment: ELISA.

The target in the next series is T8, human TDRD5 L1 (Homo sapiens, UniProt Q8NAT2 7-80).
T8 sequence: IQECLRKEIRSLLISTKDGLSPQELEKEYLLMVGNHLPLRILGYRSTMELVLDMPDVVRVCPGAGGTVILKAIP
Description: ELISA.

The next series deals with human TDRD7 L1 (Homo sapiens, UniProt Q8NHU6 3-76). Description: ELISA.
human TDRD7 L1, sequence (Q8NHU6 3-76): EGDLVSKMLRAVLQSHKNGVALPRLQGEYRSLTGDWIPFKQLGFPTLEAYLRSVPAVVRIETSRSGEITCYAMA
The target of a further series is T9, Tejas LOTUS (Drosophila, UniProt A1Z9P1 6-79).
T9 sequence: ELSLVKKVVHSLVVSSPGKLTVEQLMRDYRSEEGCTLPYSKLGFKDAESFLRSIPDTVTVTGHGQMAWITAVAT
Description: ELISA.

The next series concerns the target T10, TDRD7 L3 (Mus musculus, UniProt Q8K1H1 325-394).
T10 sequence: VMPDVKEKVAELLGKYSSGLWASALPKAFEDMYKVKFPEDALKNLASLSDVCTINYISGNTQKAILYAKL
Description: ELISA.

The target of a further series is T11, TDRD7 L1 (Mus musculus, UniProt Q8K1H1 3-76).
T11 sequence: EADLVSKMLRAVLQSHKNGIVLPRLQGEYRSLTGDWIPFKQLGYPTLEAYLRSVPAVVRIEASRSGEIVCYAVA
Description: ELISA.

A further series addresses T12, TP0894-LOTUS (Treponema pallidum subsp. pallidum str. …, UniProt O83864 178-253).
T12 sequence: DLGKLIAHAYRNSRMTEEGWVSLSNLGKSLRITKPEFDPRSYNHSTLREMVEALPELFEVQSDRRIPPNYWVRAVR
Description: ELISA.

The target of the next series is T13, human MARF1 L1 (Homo sapiens, UniProt Q9Y4F3 875-949).
T13 sequence: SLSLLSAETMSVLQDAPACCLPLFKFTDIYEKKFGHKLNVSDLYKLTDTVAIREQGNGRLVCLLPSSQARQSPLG
As to the kind of experiment: ELISA.

B1: Poly(CA) (ssRNA)
RNA: CACACACACACACACACACACACACACACA
With B1, the binding result in [1], in [2] and in series [3] was “no binding” in each case.

B2: Poly(GA) (ssRNA)
RNA: GAGAGAGAGAGAGAGAGAGAGAGAGAGAGA
B2: the binding result in series [3] is “no binding”.

B3: Cluster G4-2 RNA (structured_RNA)
RNA: AGGAGGGAAGGGGAGGGGAGGG
As to B3, the binding result in series [4] is listed as “no binding”.

B4: Cluster G4-1 mut RNA (ssRNA)
RNA: GGUCCGCAGCCGAGUCCGGGUCCG
B4: the binding result in the series with AT3G52980-LOTUS, with human MARF1 L7, in the series with Oskar LOTUS (eLOTUS), with TDRD7 L2, with human TDRD5 L1 and with human TDRD7 L1 was “no binding” each time. Further, the binding result (with Tejas LOTUS; in the series with TDRD7 L3; with TDRD7 L1; in the series with TP0894-LOTUS; with human MARF1 L1; in series [1]) was “no binding” throughout. Moreover, the binding result in series [2] and in series [3] was “no binding” each time.

B5: TERRA G4 mut RNA (ssRNA)
RNA: UUACCGUUACCGUUACCGUUACCG
As to B5, the binding result with AT3G52980-LOTUS, with human MARF1 L7, with Oskar LOTUS (eLOTUS), with TDRD7 L2, in the series with human TDRD5 L1 and with human TDRD7 L1 was “no binding” throughout. In addition, the binding result (with Tejas LOTUS; in the series with TDRD7 L3; with TDRD7 L1; with TP0894-LOTUS; in the series with human MARF1 L1; in [1]) was “no binding” each time. Moreover, the binding result in series [2] and in [3] was “no binding” each time.

B6: Poly(GU) (ssRNA)
RNA: GUGUGUGUGUGUGUGUGUGUGUGUGUGUGU
Consider B6, for which, in [3], the binding result was “no binding”.

B7: TERRA G4 RNA (structured_RNA)
RNA: UUAGGGUUAGGGUUAGGGUUAGGG
As to B7, the binding result in the series with AT3G52980-LOTUS, with human MARF1 L7, with Oskar LOTUS (eLOTUS), in the series with TDRD7 L2, in the series with human TDRD5 L1 and with human TDRD7 L1 was “binds” each time. Further, the binding result with Tejas LOTUS was “binds”; with TDRD7 L3, “binds”; with TDRD7 L1 it was “binds”; with TP0894-LOTUS it was “binds”; with human MARF1 L1 it was “binds”; in series [4], “no binding”.

B8: Cluster G4-2 mut RNA (ssRNA)
RNA: AGGACCGAAGCCGAGCCGAGCC
For the molecule B8, the binding result in [1], in series [2] and in [3] was “no binding” in each case.

B9: Poly(CU) (ssRNA)
RNA: CUCUCUCUCUCUCUCUCUCUCUCUCUCUCU
B9: the binding result in [1], in series [2] and in series [3] was “no binding” in each case.
